From US20210130436A1 (published 2021)

Experiments:
[1] = biological target: T1, CD28 endogenously expressed on Jurkat/IL2 reporter cells (human, UniProt P10747 19-220); experiment: flow cytometry, Jurkat cells (CD28)
T1 construct: also called Jurkats (CD28)

[2] = biological target: T2, human PD-L1, full-length, on CHO cells (human, UniProt Q9NZQ7 19-290); experiment: flow cytometry; PD-L1 MFI over CD28 MFI
T2 construct: also called huPD-L1; CD274

[3] = biological target: T3, human CTLA4 (CTLA-4), full-length, on CHO cells (human, UniProt P16410 36-223); experiment: flow cytometry, CHO cells stably expressing CTLA4
T3 construct: also called huCTLA4

[4] = biological target: T2, human PD-L1, full-length, on CHO cells; experiment: flow cytometry, CHO cells stably expressing PD-L1
[5] = biological target: T3, human CTLA4 (CTLA-4), full-length, on …; experiment: flow cytometry, CHO/CTLA4 cells; MFI relative to WT CD80 ECD-Fc
[6] = biological target: T2, human PD-L1, full-length, on CHO cells; experiment: flow cytometry, CHO/PD-L1 cells; MFI relative to WT CD80 ECD-Fc
[7] = biological target: T1, CD28 endogenously expressed on …; experiment: flow cytometry, Jurkat cells (CD28); MFI relative to WT CD80 ECD-Fc

T2 sequence (Q9NZQ7 19-290): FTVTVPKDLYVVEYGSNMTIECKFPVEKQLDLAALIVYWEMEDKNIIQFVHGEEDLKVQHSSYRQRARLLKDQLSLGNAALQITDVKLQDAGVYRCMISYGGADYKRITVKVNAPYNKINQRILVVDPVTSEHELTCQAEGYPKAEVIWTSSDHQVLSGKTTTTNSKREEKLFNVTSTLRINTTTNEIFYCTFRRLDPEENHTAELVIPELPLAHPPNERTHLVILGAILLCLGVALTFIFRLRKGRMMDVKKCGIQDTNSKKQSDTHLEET
T3 sequence (P16410 36-223): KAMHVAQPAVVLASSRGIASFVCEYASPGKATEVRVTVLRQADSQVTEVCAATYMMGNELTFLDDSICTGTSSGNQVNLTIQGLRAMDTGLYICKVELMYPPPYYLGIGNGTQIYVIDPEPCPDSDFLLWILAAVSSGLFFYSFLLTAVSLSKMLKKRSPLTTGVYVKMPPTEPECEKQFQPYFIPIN

Binder | MFI at 33.3 nM [1] [MFI] | Ratio of PDL1:CD28 [2] [ratio] | MFI at 33.3 nM [3] [MFI] | MFI at 33.3 nM [4] [MFI] | Fold change to WT CD80 [5] [fold] | Fold change to WT CD80 [6] [fold] | Fold change to WT CD80 [7] [fold]
variant CD80 IgV-Fc E35D/D46V/M47L/L85Q (Fc fusion, not shown: small tags and cut ends; a dimerising Fc or GST) VIHVTKEVKEVATLSCGHNVSVEELAQTRIYWQKDKKMVLTMMSGVLNIWPEYKNRTIFDITNNLSIVILALRPSDEGTYECVVQKYEKDAFKREHLAEVTLSVKAD | 268 | 28.1 | 38200 | 7520 | 0.9 | 58.8 | 0.4
variant CD80 IgV-Fc E35D/M47L/V68M (Fc fusion, not shown: small tags and cut ends; a dimerising Fc or GST) VIHVTKEVKEVATLSCGHNVSVEELAQTRIYWQKDKKMVLTMMSGDLNIWPEYKNRTIFDITNNLSIMILALRPSDEGTYECVVLKYEKDAFKREHLAEVTLSVKAD | 1240 | 22.4 | 28600 | 27900 | 0.7 | 218 | 1.8
variant CD80 IgV-Fc E35D/K89N (Fc fusion, not shown: small tags and cut ends; a dimerising Fc or GST) VIHVTKEVKEVATLSCGHNVSVEELAQTRIYWQKDKKMVLTMMSGDMNIWPEYKNRTIFDITNNLSIVILALRPSDEGTYECVVLKYENDAFKREHLAEVTLSVKAD | 236 | 3.2 | 21800 | 757 | 0.5 | 5.9 | 0.3
variant CD80 IgV-Fc E35D/M47L (Fc fusion, not shown: small tags and cut ends; a dimerising Fc or GST) VIHVTKEVKEVATLSCGHNVSVEELAQTRIYWQKDKKMVLTMMSGDLNIWPEYKNRTIFDITNNLSIVILALRPSDEGTYECVVLKYEKDAFKREHLAEVTLSVKAD | 411 | 18.3 | 48000 | 7530 | 1.2 | 58.8 | 0.6
variant CD80 IgV-Fc E35D/M47L/L85Q (Fc fusion, not shown: small tags and cut ends; a dimerising Fc or GST) VIHVTKEVKEVATLSCGHNVSVEELAQTRIYWQKDKKMVLTMMSGDLNIWPEYKNRTIFDITNNLSIVILALRPSDEGTYECVVQKYEKDAFKREHLAEVTLSVKAD | 46.3 | 132 | 12900 | 6100 | 0.3 | 47.6 | 0.1
variant CD80 IgV-Fc E35D/D46V/M47L/V68M/L85Q (Fc fusion, not shown: small tags and cut ends; a dimerising Fc or GST) VIHVTKEVKEVATLSCGHNVSVEELAQTRIYWQKDKKMVLTMMSGVLNIWPEYKNRTIFDITNNLSIMILALRPSDEGTYECVVQKYEKDAFKREHLAEVTLSVKAD | 464 | 61.2 | 26200 | 28400 | 0.6 | 222 | 0.7

Now from value to binder:

MFI at 33.3 nM [1] [MFI] | Ratio of PDL1:CD28 [2] [ratio] | MFI at 33.3 nM [3] [MFI] | MFI at 33.3 nM [4] [MFI] | Fold change to WT CD80 [5] [fold] | Fold change to WT CD80 [6] [fold] | Fold change to WT CD80 [7] [fold] | Binder
194 | 33.7 | 41300 | 6540 | 1 | 51.1 | 0.3 | variant CD80 IgV-Fc E35D/N48K (Fc fusion, not shown: small tags and cut ends; a dimerising Fc or GST) VIHVTKEVKEVATLSCGHNVSVEELAQTRIYWQKDKKMVLTMMSGDMKIWPEYKNRTIFDITNNLSIVILALRPSDEGTYECVVLKYEKDAFKREHLAEVTLSVKAD
413 | 7.5 | 44600 | 3080 | 1.1 | 24.1 | 0.6 | variant CD80 IgV-Fc M47V/N48K (Fc fusion, not shown: small tags and cut ends; a dimerising Fc or GST) VIHVTKEVKEVATLSCGHNVSVEELAQTRIYWQKEKKMVLTMMSGDVKIWPEYKNRTIFDITNNLSIVILALRPSDEGTYECVVLKYEKDAFKREHLAEVTLSVKAD
159 | 96.3 | 28100 | 15300 | 0.7 | 120 | 0.2 | variant CD80 IgV-Fc E35D/M47L/V68M/L85Q (Fc fusion, not shown: small tags and cut ends; a dimerising Fc or GST) VIHVTKEVKEVATLSCGHNVSVEELAQTRIYWQKDKKMVLTMMSGDLNIWPEYKNRTIFDITNNLSIMILALRPSDEGTYECVVQKYEKDAFKREHLAEVTLSVKAD
501 | 13.6 | 44600 | 6800 | 1.1 | 53.1 | 0.7 | variant CD80 IgV-Fc E35D/M47V (Fc fusion, not shown: small tags and cut ends; a dimerising Fc or GST) VIHVTKEVKEVATLSCGHNVSVEELAQTRIYWQKDKKMVLTMMSGDVNIWPEYKNRTIFDITNNLSIVILALRPSDEGTYECVVLKYEKDAFKREHLAEVTLSVKAD
60.9 | 66.3 | 11100 | 4040 | 0.3 | 31.6 | 0.1 | variant CD80 IgV-Fc M47L/V68M/L85Q (Fc fusion, not shown: small tags and cut ends; a dimerising Fc or GST) VIHVTKEVKEVATLSCGHNVSVEELAQTRIYWQKEKKMVLTMMSGDLNIWPEYKNRTIFDITNNLSIMILALRPSDEGTYECVVQKYEKDAFKREHLAEVTLSVKAD
56.3 | 0.9 | 944 | 52.8 | 0 | 0.4 | 0.1 | variant CD80 IgV-Fc K89N (Fc fusion, not shown: small tags and cut ends; a dimerising Fc or GST) VIHVTKEVKEVATLSCGHNVSVEELAQTRIYWQKEKKMVLTMMSGDMNIWPEYKNRTIFDITNNLSIVILALRPSDEGTYECVVLKYENDAFKREHLAEVTLSVKAD
68.7 | 33.7 | 33300 | 2320 | 0.8 | 18.1 | 0.1 | variant CD80 IgV-Fc M47V (Fc fusion, not shown: small tags and cut ends; a dimerising Fc or GST) VIHVTKEVKEVATLSCGHNVSVEELAQTRIYWQKEKKMVLTMMSGDVNIWPEYKNRTIFDITNNLSIVILALRPSDEGTYECVVLKYEKDAFKREHLAEVTLSVKAD
197 | 3.2 | 32400 | 622 | 0.8 | 4.9 | 0.3 | variant CD80 IgV-Fc M47V/K89N (Fc fusion, not shown: small tags and cut ends; a dimerising Fc or GST) VIHVTKEVKEVATLSCGHNVSVEELAQTRIYWQKEKKMVLTMMSGDVNIWPEYKNRTIFDITNNLSIVILALRPSDEGTYECVVLKYENDAFKREHLAEVTLSVKAD
76.2 | 78.4 | 42800 | 5970 | 1.1 | 46.6 | 0.1 | variant CD80 IgV-Fc E35D/V68M/L85Q (Fc fusion, not shown: small tags and cut ends; a dimerising Fc or GST) VIHVTKEVKEVATLSCGHNVSVEELAQTRIYWQKDKKMVLTMMSGDMNIWPEYKNRTIFDITNNLSIMILALRPSDEGTYECVVQKYEKDAFKREHLAEVTLSVKAD
